{"source": "patent US10487307B2", "about": "“Culture method for pluripotent stem cells” (FUJIFILM CORPORATION, priority 2013, dated 2019)", "molecules": {"B1": {"name": "RCP-8: recombinant polypeptide for culture, SEQ ID NO: 22; vitronectin positions 1-55, 269-373, 374-379, C274S (protein)", "chain": "MDQESCKGRCTEGFNVDKKCQCDELCSYYQSCCTDYTAECKPQVTRGDVFTMPEDESQEESEGSSLSAVFEHFAMMQRDSWEDIFELLFWGRTSAGTRQPQFISRDWHGVPGQVDAAMAGRIYISGMAPRPSLAKKQRFRHRNRKGYRSQRGHSRGRNQNSRRPSR", "modifications": "Vitronectin-derived Recombinant Protein (RCP-8)", "notes": "vitronectin positions 1-55, 269-373, 374-379, C274S"}, "B2": {"name": "RCP-6: recombinant polypeptide for culture, SEQ ID NO: 20; vitronectin positions 1-55, 269-459, C274S (protein)", "chain": "MDQESCKGRCTEGFNVDKKCQCDELCSYYQSCCTDYTAECKPQVTRGDVFTMPEDESQEESEGSSLSAVFEHFAMMQRDSWEDIFELLFWGRTSAGTRQPQFISRDWHGVPGQVDAAMAGRIYISGMAPRPSLAKKQRFRHRNRKGYRSQRGHSRGRNQNSRRPSRATWLSLFSSEESNLGANNYDDYRMDWLVPATSEPIQSVFFFSGDKYYRVNLRTRRVDTVDPPYPRSIAQYWLGSPAPGHL", "modifications": "Vitronectin-derived Recombinant Protein (RCP-6)", "notes": "vitronectin positions 1-55, 269-459, C274S"}, "B3": {"name": "RCP-2: recombinant polypeptide for culture, SEQ ID NO: 16; vitronectin positions 1-55 and 342-373 (protein)", "chain": "MDQESCKGRCTEGFNVDKKCQCDELCSYYQSCCTDYTAECKPQVTRGDVFTMPEDEPRPSLAKKQRFRHRNRKGYRSQRGHSRGRNQN", "modifications": "Vitronectin-derived Recombinant Protein (RCP-2)"}, "B4": {"name": "RCP-7: recombinant polypeptide for culture, SEQ ID NO: 21; vitronectin positions 1-55, 269-373, C274S (protein)", "chain": "MDQESCKGRCTEGFNVDKKCQCDELCSYYQSCCTDYTAECKPQVTRGDVFTMPEDESQEESEGSSLSAVFEHFAMMQRDSWEDIFELLFWGRTSAGTRQPQFISRDWHGVPGQVDAAMAGRIYISGMAPRPSLAKKQRFRHRNRKGYRSQRGHSRGRNQN", "modifications": "Vitronectin-derived Recombinant Protein (RCP-7)", "notes": "vitronectin positions 1-55, 269-373, C274S"}, "B5": {"name": "RCP-3: recombinant polypeptide for culture, SEQ ID NO: 17; vitronectin positions 1-55, 322-341, 342-373 (protein)", "chain": "MDQESCKGRCTEGFNVDKKCQCDELCSYYQSCCTDYTAECKPQVTRGDVFTMPEDEGVPGQVDAAMAGRIYISGMAPRPSLAKKQRFRHRNRKGYRSQRGHSRGRNQN", "modifications": "Vitronectin-derived Recombinant Protein (RCP-3)"}, "B6": {"name": "RCP-9: recombinant polypeptide for culture, SEQ ID NO: 23; vitronectin positions 1-55, 269-373, 374-389, C274S (protein)", "chain": "MDQESCKGRCTEGFNVDKKCQCDELCSYYQSCCTDYTAECKPQVTRGDVFTMPEDESQEESEGSSLSAVFEHFAMMQRDSWEDIFELLFWGRTSAGTRQPQFISRDWHGVPGQVDAAMAGRIYISGMAPRPSLAKKQRFRHRNRKGYRSQRGHSRGRNQNSRRPSRATWLSLFSSE", "modifications": "Vitronectin-derived Recombinant Protein (RCP-9)", "notes": "vitronectin positions 1-55, 269-373, 374-389, C274S"}, "B7": {"name": "RCP-4: recombinant polypeptide for culture, SEQ ID NO: 18; vitronectin positions 1-55, 312-341, 342-373 (protein)", "chain": "MDQESCKGRCTEGFNVDKKCQCDELCSYYQSCCTDYTAECKPQVTRGDVFTMPEDEQPQFISRDWHGVPGQVDAAMAGRIYISGMAPRPSLAKKQRFRHRNRKGYRSQRGHSRGRNQN", "modifications": "Vitronectin-derived Recombinant Protein (RCP-4)"}, "B8": {"name": "RCP-10: recombinant polypeptide for culture, SEQ ID NO: 24; vitronectin positions 1-55, 269-373, 374-399, C274S (protein)", "chain": "MDQESCKGRCTEGFNVDKKCQCDELCSYYQSCCTDYTAECKPQVTRGDVFTMPEDESQEESEGSSLSAVFEHFAMMQRDSWEDIFELLFWGRTSAGTRQPQFISRDWHGVPGQVDAAMAGRIYISGMAPRPSLAKKQRFRHRNRKGYRSQRGHSRGRNQNSRRPSRATWLSLFSSEESNLGANNYD", "modifications": "Vitronectin-derived Recombinant Protein (RCP-10)", "notes": "vitronectin positions 1-55, 269-373, 374-399, C274S"}}, "key": {"iPS cells": {"test_system": "iPS cells", "assay": "Growth evaluation, number of cells after 3 days", "format": "cell-based, human", "details": "5,000 cells/well, sample 1 (RCP-1) = 100%", "method": "By adding RCP-1 to RCP-11 and Human Recombinant Laminin-511 as control at the concentration shown in Table 9, samples 1 to 12 were prepared. The samples were seeded into a 96-well plate, onto which each of the polypeptides was adsorbed in the same manner as in <Cell adhesiveness evaluation 1>, at a ratio of 5,000 cells/well and cultured for 3 days in a CO2 incubator at 37° C. The number of cells after 3 days was calculated in the same manner as in <Cell adhesiveness evaluation 1>. In Table 9, the number of cells after 3 days is expressed as a ratio calculated by regarding the number of cells obtained by using the sample 1 as being 100%."}, "[1]": {"assay": "Aggregation after dialysis of purified polypeptide solution", "format": "physicochemical", "set-up": "key: G: The formation of an aggregate was not observed.; A: The formation of particles having a particle size of about 100 nm was observed.; B: The formation of an aggregation of particles having a particle size of equal to or greater than 1 mm was visually observed", "method": "For RCP-1 to RCP-11, each of the purified polypeptide solutions was dialyzed using Slide-A-Lizer (3.5 K MWCO.). Basically, by using a dialysis buffer (PBS, 1.5 M NaCl, 0.5 M L-arginine, 1 mM EDTA, pH 7.4) as an outer dialysate, urea was removed by stepwise dialysis. The concentration of the end-product of dialysis was calculated from the absorbence at 280 nm by using NanoDrop (Thermo Fisher Scientific Inc.).\nWhether or not aggregation was occurred was evaluated based on the scale of A, and B as shown below.\nG: The formation of an aggregate was not observed.\nA: The formation of particles having a particle size of about 100 nm was observed.\nB: The formation of an aggregation of particles having a particle size of equal to or greater than 1 mm was visually observed."}, "human iPS cells (\"Tic\")": {"test_system": "human iPS cells (\"Tic\")", "assay": "Cell adhesiveness evaluation 1 (ALP activity of adhesive iPS cells)", "format": "cell-based", "details": "30,000 cells/well, 24 hours, natural vitronectin (sample 15) = 100%, n=3", "method": "The cell adhesiveness of human iPS cells (“Tic”: Cell No. JCRB 1331: from National Institute of Biomedical Innovation. [567-0085, 7-6-8 Asagi Saito Ibaraki-City Osaka]) with respect to the aforementioned polypeptides was evaluated in the following manner.\nAs feeder cells for retaining the human iPS cells, EmbryoMax (registered trademark) (early mouse embryonic fibroblasts: resistant to hygromycin, treated with mitomycin C, derived from C57/BL6, third passage) (Millipore Corporation) was used. By using DMEM (Invitrogen) and a 10% (v/v) fetal bovine serum medium, the feeder cells were cultured for 24 hours and attached to a T25 flask (Corning Incorporated). As a medium for the human iPS cells, the one obtained by adding FGF-2 (Sigma-Aldrich Co, LLC.) to a medium composed as shown in Table 6 at a final concentration of 10 ng/ml was used.\nBy using the aforementioned medium, the human iPS cells were retained and cultured in a 5% (v/v, the same unit will be used hereinafter) CO2 incubator at 37° C. Except for the day after the seeding of the iPS cells, the medium was replaced every day. The subculture operation was performed by exfoliating the cells by using Dispase II (neutral protease Grade II, Roche) and separating the cells in an appropriate size by a pipetting operation.\nThe iPS cells cultured as described above were treated with TrypLE Select (Invitrogen) for 5 minutes at 37° C. and separated into a single cell. After being subjected to centrifugation for 2 minutes at 300 rpm, the cells were collected and suspended in TeSR2 (a medium not containing a heterogeneous animal-derived component and a serum component, STEMCELL Technologies.) containing Y-27362 ((R)-(+)-trans-N-(4-pyridyl)-4-(1-aminoethyl)-cyclohexane carboxamide.2HCl.H2O, an Rho binding kinase inhibitor, Wako Pure Chemical Industries, Ltd.) at a final concentration of 10 μM.\nEach of RCP-1 to RCP-11, RCP-21, RCP-25, and RCP-26 as control, human vitronectin (extracted from human serum, BD Biosciences), and recombinant laminin (rLaminin-5: Oriental Yeast Co., ltd. and Human Recombinant Laminin-511: BIOLAMINA AB) was added to and suspended in a predetermined buffer (a dialysis buffer used in <GRAVY value and aggregation characteristics> described above for RCP-1 to RCP-11, and PBS for RCP-21, RCP-25, human vitronectin, and recombinant laminin) at the concentration shown in Table 7, thereby preparing samples 1 to 17. The samples were added to the respective wells of a 96-well plate and adsorbed onto the plate by being held for 2 hours at 37° C.\nInto the respective wells of the 96-well plate treated with the peptides, iPS cells were seeded at a cell density of 30,000 cells/well. After the cells were cultured for 24 hours, the nonadhesive cells were washed off with PBS, and only the adhesive cells were immobilized by using 4% (v/v) paraformaldehyde (Wako Pure Chemical Industries, Ltd.). By using an Attophos (registered trademark) AP Fluorescent Substrate System (Promega Corporation), the ALP activity was calculated, and from the calibration curve, the number of undifferentiated iPS cells having the ALP activity was calculated. In Table 7, the cell adhesion rate is expressed as a ratio calculated by regarding the cell adhesion rate obtained from the sample 15 using natural vitronectin as being 100%. n=3."}}}
{"molecule": "B1", "values": [{"measurement": "Number of cells after 3 days (%)", "setting": "iPS cells; added amount 5 μg/cm^2", "result": 171.0, "unit": "%"}, {"measurement": "Aggregation", "setting": "[1]", "result": "A"}, {"measurement": "Cell adhesion rate (%)", "setting": "human iPS cells (\"Tic\"); added amount 5 μg/cm^2", "result": "89.2 ± 1.4", "unit": "%"}]}
{"molecule": "B2", "values": [{"measurement": "Number of cells after 3 days (%)", "setting": "iPS cells; added amount 20 μg/cm^2", "result": 70.5, "unit": "%"}, {"measurement": "Aggregation", "setting": "[1]", "result": "A"}, {"measurement": "Cell adhesion rate (%)", "setting": "human iPS cells (\"Tic\"); added amount 20 μg/cm^2", "result": "92.8 ± 4.4", "unit": "%"}]}
{"molecule": "B3", "values": [{"measurement": "Number of cells after 3 days (%)", "setting": "iPS cells; added amount 20 μg/cm^2", "result": 81.7, "unit": "%"}, {"measurement": "Aggregation", "setting": "[1]", "result": "G"}, {"measurement": "Cell adhesion rate (%)", "setting": "human iPS cells (\"Tic\"); added amount 20 μg/cm^2", "result": "98.7 ± 6.2", "unit": "%"}]}
{"molecule": "B4", "values": [{"measurement": "Number of cells after 3 days (%)", "setting": "iPS cells; added amount 5 μg/cm^2", "result": 89.9, "unit": "%"}, {"measurement": "Aggregation", "setting": "[1]", "result": "A"}, {"measurement": "Cell adhesion rate (%)", "setting": "human iPS cells (\"Tic\"); added amount 5 μg/cm^2", "result": "88.6 ± 8.1", "unit": "%"}]}
{"molecule": "B5", "values": [{"measurement": "Number of cells after 3 days (%)", "setting": "iPS cells; added amount 20 μg/cm^2", "result": 109.7, "unit": "%"}, {"measurement": "Aggregation", "setting": "[1]", "result": "G"}, {"measurement": "Cell adhesion rate (%)", "setting": "human iPS cells (\"Tic\"); added amount 20 μg/cm^2", "result": "106.1 ± 4.5", "unit": "%"}]}
{"molecule": "B6", "values": [{"measurement": "Number of cells after 3 days (%)", "setting": "iPS cells; added amount 20 μg/cm^2", "result": 105.8, "unit": "%"}, {"measurement": "Aggregation", "setting": "[1]", "result": "B (The formation of an aggregation of particles having a particle size of equal to or greater than 1 mm was visually observed.)"}, {"measurement": "Cell adhesion rate (%)", "setting": "human iPS cells (\"Tic\"); added amount 20 μg/cm^2", "result": "95.5 ± 10.2", "unit": "%"}]}
{"molecule": "B7", "values": [{"measurement": "Number of cells after 3 days (%)", "setting": "iPS cells; added amount 20 μg/cm^2", "result": 120.7, "unit": "%"}, {"measurement": "Aggregation", "setting": "[1]", "result": "G"}, {"measurement": "Cell adhesion rate (%)", "setting": "human iPS cells (\"Tic\"); added amount 20 μg/cm^2", "result": "100.1 ± 4.5", "unit": "%"}]}
{"molecule": "B8", "values": [{"measurement": "Number of cells after 3 days (%)", "setting": "iPS cells; added amount 20 μg/cm^2", "result": 101.9, "unit": "%"}, {"measurement": "Aggregation", "setting": "[1]", "result": "B (The formation of an aggregation of particles having a particle size of equal to or greater than 1 mm was visually observed.)"}, {"measurement": "Cell adhesion rate (%)", "setting": "human iPS cells (\"Tic\"); added amount 20 μg/cm^2", "result": "93.0 ± 7.8", "unit": "%"}]}
